Source: PMC12003248, “ERCC6L2 mitigates replication stress and promotes centromere stability” (Cell Reports, 2023)
Where no end group is shown, it is not given here.

Legend:
His-tagged human PCNA [1] = molecular target: T1, His-tagged human PCNA (human, UniProt P12004 1-261); assay: pull-down; GST-tagged ERCC6L2 753-819 immobilised on GST-beads, incubated with purified His-tagged PCNA 1 h at 4°C in 50 mM Tris-HCl pH 8, 150 mM NaCl, 1 mM DTT, 0.2% Triton X-; Western blot against PCNA; details: both partners purified
T1 construct: PCNA, human; cloned into the NdeI and XhoI sites of pET28a for the protein with N-terminal His-tag; The ITC methods say only 'PCNA'; the paragraph on purification of His-tagged PCNA describes the preparation for ITC; also called recombinant PCNA; source: E. coli Rosetta (pET28a), purified (Ni-NTA, Q-sepharose, Superdex S-200); not shown: His-tag, N-terminal, kept

U2OS cells = assay: Nuclear patterns resembling replication foci of YFP-ERCC6L2 truncations; format: cell-based, human; details: YFP-tagged fragments
Source text: Figure 4 ERCC6L2 contains an atypical PCNA-binding motif (A) ERCC6L2 colocalizes with PCNA at CENP-C-negative foci. U2OS cells transfected with YFP-ERCC6L2 were stained for CENP-C and PCNA after pre-extraction of soluble proteins. ERCC6L2-and PCNA-positive, but CENP-C negative foci (red arrows) are marked in zoomed images. (B) ERCC6L2 colocalizes with RPA at CENP-C-negative foci. U2OS cells transfected with YFP-ERCC6L2 were stained for CENP-C and RPA. ERCC6L2- and RPA-positive, but CENP-C-negative foci (red arrows) are marked in zoomed images. (C) Colocalization of the C-terminal ERCC6L2^701−1561 fragment with endogenous PCNA. (D) PCNA pull-down with biotinylated peptides. Biotinylated PIP-box and APIM motif peptides were bound to streptavidin beads and incubated with recombinant PCNA. Interactions were assayed by western blotting with PCNA antibody. Wild-type ZRANB3 PIP-box peptide (ZRANB3 PIP) was used as a positive control. Mutant ZRANB3 PIP-box peptide (Q519A, F525A, and F526A, ZRANB3 PIP^∗) served as a negative control. ERCC6L2 aPIP and ERCC6L2 aPIP^∗ denote atypical ERCC6L2 peptides (residues 790–811) containing the WT and the Q798A mutant sequences, respectively. (E) Expression patterns of the indicated C-terminal YFP-ERCC6L2 constructs. […] (F) PCNA pull-down with GST-tagged peptides. Wild-type and Q798A mutant versions of the GST-tagged ERCC6L2 fragments (residues 753–819) were immobilized on GST beads (shown on the left) and incubated with recombinant PCNA. Interactions were assessed by western blotting against PCNA (shown on the right). (G) Schematic representation of different ERCC6L2 fragments tested for formation of PCNA-like foci. A region at the N terminus of fragment 701–1,098 is zoomed below to show sequence alignment of different ERCC6L2 proteins. The conserved atypical PIP-box is marked in a green frame. Targeted mutation sites are indicated by red arrows. (H) Colocalization of YFP-ERCC6L2 wild type, ATPase dead K165 ERCC6L2, and aPIP^∗ mutant (Q798A, C804A, F806A) with CENP-A. N(cells) > 1,400. (I) Colocalization of YFP-ERCC6L2 wild type, ATPase dead K165 ERCC6L2, and aPIP^∗ mutant (Q798A, C804A, F806A) with CENP-B. N(cells) > 1,000. (J) Front and side views of the PCNA ring (white surface and ribbons) with the ERCC6L2 aPIP-box peptide (green sticks). (K) Overview of the hydrogen-bond interaction network between the ERCC6L2 aPIP-box peptide (green) and PCNA (white). Hydrogen bonds are shown as yellow dotted lines. (L) Hydrophobic pocket on PCNA surface (white) with conserved residues that form “hydrophobic plug” (Leu801, Cys804, and Phe806; shown as green sticks) in the ERCC6L2 aPIP-box peptide. (M) Magnified view of the boxed region in (I). (N) Magnified view of the hydrogen-bond interaction network between the ERCC6L2 aPIP-box peptide (green) and PCNA (white, labels in italics). Hydrogen bonds are shown as yellow dotted lines. Intramolecular hydrogen bonds between ERCC6L2 aPIP-box residues are also shown. (H) and (I) Box and whisker plots. […] (A), (B), (C), (E) Scale bar, 5 μm.
U2OS cells (ATCC) were grown in 24 well plates. Where indicated, cells were transfected with the YFP constructs […] with siRNAs. […] Samples were analyzed by confocal microscopy using Olympus FV1200 or Zeiss 880 Airyscan microscopes, or using EVOS M7000 Imaging System.

CENP-A = assay: Colocalization of YFP-ERCC6L2 constructs with CENP-A; format: cell-based, human; details: U2OS cells; N(cells) > 1,400 for mutants
His-tagged human PCNA [2] = molecular target: T1, His-tagged human PCNA; assay: pull-down; biotinylated peptides immobilised on magnetic streptavidin beads, incubated with purified His-tagged PCNA 1 h at 4°C in 50 mM Tris-HCl pH 8, 150 mM NaCl, 1 mM DTT, 0.2% Triton X-; anti-PCNA Western blot; details: both partners purified
His-tagged human PCNA [3] = molecular target: T1, His-tagged human PCNA; assay: ITC; 25°C, PBS with 1 mM β-mercaptoethanol; 15 μM PCNA in the chamber, 215 μM ERCC6L2 aPIP peptide injected in 20 steps of 2 μL; single set of independent binding sites model; details: both partners purified
endogenous PCNA = assay: Colocalization of YFP-ERCC6L2 constructs with endogenous PCNA; format: cell-based, human; details: YFP-tagged, U2OS cells
Source text: Figure 4 ERCC6L2 contains an atypical PCNA-binding motif (A) ERCC6L2 colocalizes with PCNA at CENP-C-negative foci. U2OS cells transfected with YFP-ERCC6L2 were stained for CENP-C and PCNA after pre-extraction of soluble proteins. ERCC6L2-and PCNA-positive, but CENP-C negative foci (red arrows) are marked in zoomed images. (B) ERCC6L2 colocalizes with RPA at CENP-C-negative foci. U2OS cells transfected with YFP-ERCC6L2 were stained for CENP-C and RPA. ERCC6L2- and RPA-positive, but CENP-C-negative foci (red arrows) are marked in zoomed images. (C) Colocalization of the C-terminal ERCC6L2^701−1561 fragment with endogenous PCNA. (D) PCNA pull-down with biotinylated peptides. Biotinylated PIP-box and APIM motif peptides were bound to streptavidin beads and incubated with recombinant PCNA. Interactions were assayed by western blotting with PCNA antibody. Wild-type ZRANB3 PIP-box peptide (ZRANB3 PIP) was used as a positive control. Mutant ZRANB3 PIP-box peptide (Q519A, F525A, and F526A, ZRANB3 PIP^∗) served as a negative control. […] Interactions were assessed by western blotting against PCNA (shown on the right). […]
U2OS cells (ATCC) were grown in 24 well plates. […] Samples were analyzed by confocal microscopy using Olympus FV1200 or Zeiss 880 Airyscan microscopes, or using EVOS M7000 Imaging System. […]

T1 sequence (P12004 whole entry): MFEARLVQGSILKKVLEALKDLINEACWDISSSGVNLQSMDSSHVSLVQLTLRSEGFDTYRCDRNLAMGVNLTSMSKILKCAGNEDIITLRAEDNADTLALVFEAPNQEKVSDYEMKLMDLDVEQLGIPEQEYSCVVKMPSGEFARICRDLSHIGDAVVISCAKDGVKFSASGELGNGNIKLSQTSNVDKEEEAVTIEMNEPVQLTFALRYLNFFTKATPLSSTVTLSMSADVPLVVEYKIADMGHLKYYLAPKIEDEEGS

Molecule | nuclear pattern resembling replication foci (U2OS cells) | further results
GST-tagged ERCC6L2^753−819 fragment (domain or fragment, human, UniProt Q5T890 753-819, looked up) AAEPLAKEACDLCSDFSDEEPVGATGIKTAKNKAPDSSKASSSPGQLTLLQCGFSKLLETKCKAVED | – | binding result (His-tagged human PCNA [1]): binds
880–1,098: C-terminal YFP-ERCC6L2 fragment (protein, UniProt Q5T890 880-1098, looked up, fragment, YFP tag, C-terminal YFP-ERCC6L2 fragment) EKKIKNTDKHCILQNVTESEDSDVICPTQYTTERFPDNSIRFKPPLEGSEDSETEHTVKTRNNDNSRNTDDKRNGIISKKLSPENTTLKSILKRKGTSDISDESDDIEISSKSRVRKRASSLRFKRIKETKKELHNSPKTMNKTNQVYAANEDHNSQFIDDYSSSDESLSVSHFSFSKQSHRPRTIRDRTSFSSKLPSHNKKNSTFIPRKPMKCSNEKV | do not | –
YFP-ERCC6L2^1053−1247: YFP-tagged C-terminal ERCC6L2 fragment (protein, UniProt Q5T890 1053-1247, looked up, fragment, YFP tag, YFP-tagged C-terminal ERCC6L2 fragment) FSFSKQSHRPRTIRDRTSFSSKLPSHNKKNSTFIPRKPMKCSNEKVVNQEQSYESMDKFLDGVQEVAYIHSNQNVIGSSKAENHMSRWAAHDVFELKQFSQLPANIAVCSSKTYKEKVDADTLPHTKKGQQPSEGSISLPLYISNPVNQKKKKVYHTNQTTFIIGETPKGIRRKQFEEMASYFNSSSVNEFAKHI | – | colocalization with CENP-A (CENP-A): formed foci marked by the CENP-A protein
SKASSSPGQLTLLQCGFSKLLE (peptide, UniProt Q5T890 790-811, looked up, also: biotin, position not given here, ERCC6L2, human, residues 790-811, wild-type atypical PIP-box (consensus Q-[FL]-x-L-x-Q-C-G-[FL]); also called ERCC6L2 aPIP; biotinylated ERCC6L2^790−811 peptide; source: synthetic peptide (Genscript)) [Biotinylated aPIP ERCC6L2 peptide (residues 790–811)] | – | binding result (His-tagged human PCNA [2]): binds
SPGQLTLLQCGFSKLLETKCKA (peptide, UniProt Q5T890 795-816, looked up, ERCC6L2, human, residues 795-816, atypical PIP-box; Used for ITC and for co-crystallisation with PCNA; also called ERCC6L2 aPIP peptide; aPIP(ERCC6L2); source: synthetic peptide (Genscript)) [ERCC6L2^795−816 aPIP peptide] | – | Kd (His-tagged human PCNA [3]): ~6 µM
728–1,098: C-terminal YFP-ERCC6L2 fragment (protein, UniProt Q5T890 728-1098, looked up, fragment, YFP tag, C-terminal YFP-ERCC6L2 fragment) PRQPDCQECRGTEQAAEPLAKEACDLCSDFSDEEPVGATGIKTAKNKAPDSSKASSSPGQLTLLQCGFSKLLETKCKAVEDSDGNTASDDESSDEQPTCLSTEAKDAGCEKNQDSLGTSKHQKLDNILNPKEKHIFYKSEKILEQNISSKSDEKKIKNTDKHCILQNVTESEDSDVICPTQYTTERFPDNSIRFKPPLEGSEDSETEHTVKTRNNDNSRNTDDKRNGIISKKLSPENTTLKSILKRKGTSDISDESDDIEISSKSRVRKRASSLRFKRIKETKKELHNSPKTMNKTNQVYAANEDHNSQFIDDYSSSDESLSVSHFSFSKQSHRPRTIRDRTSFSSKLPSHNKKNSTFIPRKPMKCSNEKV | show patterns reminiscent of replication foci | –
820–1,098: C-terminal YFP-ERCC6L2 fragment (protein, UniProt Q5T890 820-1098, looked up, fragment, YFP tag, C-terminal YFP-ERCC6L2 fragment) SDEQPTCLSTEAKDAGCEKNQDSLGTSKHQKLDNILNPKEKHIFYKSEKILEQNISSKSDEKKIKNTDKHCILQNVTESEDSDVICPTQYTTERFPDNSIRFKPPLEGSEDSETEHTVKTRNNDNSRNTDDKRNGIISKKLSPENTTLKSILKRKGTSDISDESDDIEISSKSRVRKRASSLRFKRIKETKKELHNSPKTMNKTNQVYAANEDHNSQFIDDYSSSDESLSVSHFSFSKQSHRPRTIRDRTSFSSKLPSHNKKNSTFIPRKPMKCSNEKV | do not | –
ERCC6L2^701−1247: C-terminal ERCC6L2 fragment (protein, UniProt Q5T890 701-1247, looked up, fragment, YFP tag, C-terminal ERCC6L2 fragment) REGQVEAGIMTATTWLKEGPPAHKLEMPRQPDCQECRGTEQAAEPLAKEACDLCSDFSDEEPVGATGIKTAKNKAPDSSKASSSPGQLTLLQCGFSKLLETKCKAVEDSDGNTASDDESSDEQPTCLSTEAKDAGCEKNQDSLGTSKHQKLDNILNPKEKHIFYKSEKILEQNISSKSDEKKIKNTDKHCILQNVTESEDSDVICPTQYTTERFPDNSIRFKPPLEGSEDSETEHTVKTRNNDNSRNTDDKRNGIISKKLSPENTTLKSILKRKGTSDISDESDDIEISSKSRVRKRASSLRFKRIKETKKELHNSPKTMNKTNQVYAANEDHNSQFIDDYSSSDESLSVSHFSFSKQSHRPRTIRDRTSFSSKLPSHNKKNSTFIPRKPMKCSNEKVVNQEQSYESMDKFLDGVQEVAYIHSNQNVIGSSKAENHMSRWAAHDVFELKQFSQLPANIAVCSSKTYKEKVDADTLPHTKKGQQPSEGSISLPLYISNPVNQKKKKVYHTNQTTFIIGETPKGIRRKQFEEMASYFNSSSVNEFAKHI | – | colocalization with endogenous PCNA (endogenous PCNA): efficiently colocalized with endogenous PCNA
797–1,098: C-terminal YFP-ERCC6L2 fragment (protein, UniProt Q5T890 797-1098, looked up, fragment, YFP tag, C-terminal YFP-ERCC6L2 fragment) KLLETKCKAVEDSDGNTASDDESSDEQPTCLSTEAKDAGCEKNQDSLGTSKHQKLDNILNPKEKHIFYKSEKILEQNISSKSDEKKIKNTDKHCILQNVTESEDSDVICPTQYTTERFPDNSIRFKPPLEGSEDSETEHTVKTRNNDNSRNTDDKRNGIISKKLSPENTTLKSILKRKGTSDISDESDDIEISSKSRVRKRASSLRFKRIKETKKELHNSPKTMNKTNQVYAANEDHNSQFIDDYSSSDESLSVSHFSFSKQSHRPRTIRDRTSFSSKLPSHNKKNSTFIPRKPMKCSNEKV | show patterns reminiscent of replication foci | –
701–1,098: C-terminal YFP-ERCC6L2 fragment (protein, UniProt Q5T890 701-1098, looked up, fragment, YFP tag, C-terminal YFP-ERCC6L2 fragment) REGQVEAGIMTATTWLKEGPPAHKLEMPRQPDCQECRGTEQAAEPLAKEACDLCSDFSDEEPVGATGIKTAKNKAPDSSKASSSPGQLTLLQCGFSKLLETKCKAVEDSDGNTASDDESSDEQPTCLSTEAKDAGCEKNQDSLGTSKHQKLDNILNPKEKHIFYKSEKILEQNISSKSDEKKIKNTDKHCILQNVTESEDSDVICPTQYTTERFPDNSIRFKPPLEGSEDSETEHTVKTRNNDNSRNTDDKRNGIISKKLSPENTTLKSILKRKGTSDISDESDDIEISSKSRVRKRASSLRFKRIKETKKELHNSPKTMNKTNQVYAANEDHNSQFIDDYSSSDESLSVSHFSFSKQSHRPRTIRDRTSFSSKLPSHNKKNSTFIPRKPMKCSNEKV | show patterns reminiscent of replication foci | –
